Measured values as given in the supplement of paper PMC9170038.

Test system: MS2 coat protein
Experiment: apparent KD of MS2 coat protein; designed switch direction (-1 OFF switch, 1 ON switch): -1; higher = weaker reporter binding
Outline: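 Normalised cluster fluorescence was curve-fitted, and each design's median over clusters is its apparent KD. Before this, SNAP-549-labelled MS2 coat protein was titrated from 0.7 or 1.5 nM, doubling to 3 µM, over RNA switches transcribed on Illumina chips by stalled E. coli RNA polymerase. Titrations had no input, 200 uM small-molecule ligand, or an oligonucleotide input, and steps lasted 0.8–1.5 h (lowest) to 10–20 min (highest).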

[1] = Eterna round: R95, input ligand: FMN 200 uM
[2] = Eterna round: R95, input ligand: microRNA oligo, concentration not stated
[3] = Eterna round: R95, input ligand: none
[4] = input ligand: microRNA oligo, concentration not stated

Sequence	apparent KD of MS2 coat protein (input ligand: FMN 200 uM) [µM]	apparent KD of MS2 coat protein (input ligand: none) [µM]	apparent KD of MS2 coat protein [1] [µM]	apparent KD of MS2 coat protein [2] [µM]	apparent KD of MS2 coat protein [3] [µM]	apparent KD of MS2 coat protein [4] [µM]
ACAAGCUCUGUGGGUGGUGACAUGAGGAUCACCCAUGUUUUGCUCGUCUUGUGCCGGCCGGCCCGCGGCCGGCCGGC [-40.6, -69.5, A 12%] (Eterna round: R97, puzzle: Sensor, turn-off variant 1)	0.718	0.885	–	–	–	–
ACAAGCUUAAUCUGUAUGAACAUGAGGAUCACCCAUGUAAAAGGGAAUACUUUUGGGUUUUUUAUAGCUCGUCUUAU [JR_STOV1_Sub019] (Eterna round: R97, puzzle: Sensor, turn-off variant 1)	0.052	0.0495	–	–	–	–
ACAAGCUUGUAAUGAUUGAACAUGAGGAUCACCCAUGUAAAUGGAAGAACCAAUUUGAUAAGAUAAACUCGUCUUAU [JR_STOV1_Sub005] (Eterna round: R97, puzzle: Sensor, turn-off variant 1)	0.0569	0.0557	–	–	–	–
ACAAGCUUGUAAUGAUUUAACAUGAGGAUCACCCAUGUAAAUGGAAGAACCAAUUUGAUAUGAUUUACUCGUCUUAU [JR_STOV1_Sub008] (Eterna round: R97, puzzle: Sensor, turn-off variant 1)	0.495	0.589	–	–	–	–
ACAAGCUUUUUGCUCGGGUACAUGAGGAUCACCCAUGUUGUGUUUUAUUGUUUUUGAUUGUUCGUGCGCUGCAGGUU [JR_SV3TOV1_Sub074] (puzzle: Sensor v3, turn-off variant 1)	–	–	0.0427	0.0385	0.0583	–
ACACAGCAAGGAUAUACAUGAGGAUCACCCAUGUGGUGGCCGUUACGGUAGGACUAGUGUAGAAGGUGCAUUGG [EX3 #32] (Eterna round: R97, puzzle: Exclusion 3)	0.637	0.469	–	–	–	–
ACACUGCGAGGAUAUACAUGAGGAUCACCCAUGUUAAGGAAGUCAAGGUUAAUUUAAGGUAGAAGGCGCGUAUU [JR_Ex3_Sub012] (Eterna round: R97, puzzle: Exclusion 3)	0.0546	0.0382	–	–	–	–
ACAGUGUUAGGAUAUGUGAGAGUUAGUCUCGACUAGUCGAAGCAGAAGGAACAUGAGGAUCACCCAUGUAGAUC [EX4 #78] (Eterna round: R97, puzzle: Exclusion 4)	0.114	0.0467	–	–	–	–
ACAUGACUGCUAGGAUAUAGAUGACAUGAGGAUCACCCAUGUUAUCCCAUGUUGAUGGAAACCGACUAGAAGGAGCAGCAUAUG [Ex NG2 #10] (Eterna round: R96, puzzle: Exclusion NG 2)	0.0534	0.033	–	–	–	0.0243
ACAUGAGGAUCACCCAUGUCCGGCUGGUCCGUCUCGGCUGUCGAGGAUAUAGCUUGGUGUCCGCGCUAGAAGGUGGGAGCCGGC [Aenatbe mod 71] (Eterna round: R96, puzzle: Exclusion NG 3)	0.166	0.154	–	–	–	0.105
ACAUGAGGAUCACCCAUGUCCGUCUGGUCUGUCUCGGCUGUCGAGGAUAUAGCCCGGUAUCCGCGCUAGAAGGCGGGAGUCGGC [Aenatbe mod 97] (Eterna round: R96, puzzle: Exclusion NG 3)	0.0231	0.0296	–	–	–	0.0245
ACAUGAGGAUCACCCAUGUCGAGUACAUGAGGAUCACCCAUGUAGGAUAUGGUUCGCUUUGCGUGCUAGAAGGAUAUGUGAUGA [salish99_ExNG3_r04_512] (Eterna round: R96, puzzle: Exclusion NG 3)	0.488	0.326	–	–	–	0.229
ACAUGAGGAUCACCCAUGUCGAGUACAUGAGGAUCACCCAUGUAGGAUAUGGUUCGCUUUGCGUGCUAGAAGGAUAUGUGUUGA [salish99_ExNG3_r04_510] (Eterna round: R96, puzzle: Exclusion NG 3)	0.321	0.226	–	–	–	0.148
ACAUGAGGAUCACCCAUGUGAAAAGAAUGGCUGACACAGAGAUAGGAUAUAUGUGCAUAUCUAACAUAGAAGGGUCAUGACUGG [Deportation 79 - Jieux - Exclusion NG 3] (Eterna round: R96, puzzle: Exclusion NG 3)	0.0286	0.0331	–	–	–	0.0216
ACAUGAGGAUCACCCAUGUGACAAGAAUGGCUGAUACAGAGAUAGGAUAUAGGUGCAUAUCUAACCUAGAAGGGUCAUGACUGG [Deportation 75 - Jieux - Exclusion NG 3] (Eterna round: R96, puzzle: Exclusion NG 3)	0.0534	0.037	–	–	–	0.0343
ACAUGAGGAUCACCCAUGUGACCACGAUGGCUGAUGUAGACCUAGGAUAUGAGUGAAUAUCUAUCUCAGAAGGAGGUUGACUGG [Deportation 50 - Jieux - Exclusion NG 3] (Eterna round: R96, puzzle: Exclusion NG 3)	0.0467	0.0612	–	–	–	0.0521

Sequence	apparent KD of MS2 coat protein (input ligand: FMN 200 uM) [µM]	apparent KD of MS2 coat protein (input ligand: none) [µM]	apparent KD of MS2 coat protein [1] [µM]	apparent KD of MS2 coat protein [2] [µM]	apparent KD of MS2 coat protein [3] [µM]	apparent KD of MS2 coat protein [4] [µM]
ACAUGAGGAUCACCCAUGUGACCACGAUGGCUGAUGUAGAGACAGGAUAUGUGUGAAUAUCUAUCACAGAAGGGUCUUGACUGG [Deportation 54 - Jieux - Exclusion NG 3] (Eterna round: R96, puzzle: Exclusion NG 3)	0.0353	0.0313	–	–	–	0.0257
ACAUGAGGAUCACCCAUGUUCGGCUGGUCCGUUUCGGCUGUCGAGGAUAUAGUUCGGUGUCCGCGCUAGAAGGCGGGAGCUGGC [Aenatbe mod 64] (Eterna round: R96, puzzle: Exclusion NG 3)	0.167	0.0685	–	–	–	0.039
ACAUGUAAUGUAGGAUAUUUUACACAUGAGGAUCACCCAUGUGACCAGAGGCAUUGCUAUGAGUAAAAGAAGGGUAUGUACAUG [Ex NG2 #58] (Eterna round: R96, puzzle: Exclusion NG 2)	0.047	0.0423	–	–	–	0.0278
ACAUGUAUUGCAGGAUAUGGGACACAUGAGGAUCACCCAUGUGACUACAUGUCAUACCACGCGUCUCAGAAGGGUAUGUACAUG [Ex NG2 #39] (Eterna round: R96, puzzle: Exclusion NG 2)	0.0277	0.0215	–	–	–	0.014
ACAUGUGUUGUAGGAUAUAGGACACAUGAGGAUCACCCAUGUGGAUUCAUGUCUAAGGAAGCGUCCUAGAAGGACGACAACAUG [Ex NG2 #26] (Eterna round: R96, puzzle: Exclusion NG 2)	0.0291	0.02	–	–	–	0.0163
ACAUUGAUUGUGAGGAUAUCGAUGUGAUGGUAUGUCGAGAAGGCACAUGAGGAUCACCCAUGUGGGUUGUAGCA [JR_BMEx4_Sub035] (Eterna round: R97, puzzle: Brourd's mod of Exclusion 4)	0.291	0.0952	–	–	–	–
ACCAAUCAUGUAGGAUAUGCGUGGCGAAGCUAUGCAGAAGGACAUGAGGAUCACCCAUGUGCUUCCGUCUGCGUACAGACGGUA [Mat - Exclusion NG 1 - Mod of JL - D17] (Eterna round: R96, puzzle: Exclusion NG 1)	0.0492	0.0923	–	–	–	0.0383
ACCAUGUCUGAGGAUAUGCAAGCGUACCACGCGGUAGAAGGCAGCACAUGAGGAUCACCCAUGUGGGUAUGCUA [Inanenqu] (puzzle: Exclusion 6)	–	–	0.0153	0.00992	0.0148	–
ACCGAUGUGCAAGGAUAUGACAUGAGGAUCACCCAUGUCAAAACAAGAAGAACGGGUGUGCCUCCUUAGAAGGUGCACAAACGA [Eternabot solution 2] (Eterna round: R96, puzzle: Exclusion NG 2)	0.0261	0.024	–	–	–	0.0171
ACCGUGUGAGGAUAUCCGUAGCUGAGGCACCUCGCAAACAUGGAGAAGGCACAUGAGGAUCACCCAUGUGAACC [Eternabot (Original) Solution 27] (Eterna round: R97, puzzle: Exclusion 4)	0.0471	0.0238	–	–	–	–
ACCUCACAUGAGGAUCACCCAUGUCAGGAUAUAAUUUCAAACAUCAAUCGCGGCGCUGAGAGAAGGGUCAAAAC (Eterna round: R97, puzzle: Exclusion 1)	0.0157	0.0159	–	–	–	–
ACCUCACUUGAGGAUCACCCAAGUCAGGAUAUACUCGUUUGCCGAAAGACGCGGCAUUGUAGAAGGGACGGGUU [Raortiza] (Eterna round: R97, puzzle: Exclusion 1)	0.0266	0.0155	–	–	–	–
ACCUUACUGGUCAGGAUAUACAGUCUUUGGUGUGUGUAGAAGGGACAUGAGGAUCACCCAUGUAGGUUGCAGUA [alecazam60] (Eterna round: R97, puzzle: Brourd's mod of Exclusion 4)	0.0776	0.0677	–	–	–	–
ACGAUGAUCGAAAAGUGUAAAUCGACAUGAGGAUCACCCAUGUAGGAUAUGGCUACGAAAAGUAGUCAGAAGGGCAUGUCAUCA [3 Av 11 mod - 1] (Eterna round: R96, puzzle: Exclusion NG 3)	0.0369	0.0311	–	–	–	0.0257
ACGCAACAUGAGGAUCACCCAUGUCAGGAUAUCCGGCGAAAACCCAAGAAGGGAAACCGGAGAAGGGACAAAGG [ChP 04-04-2015 #1] (puzzle: Exclusion 1)	–	–	0.134	0.181	0.189	–
